Assays:
[1] = molecular target: T1, human Clq (human, UniProt P02745 23-245; P02746 28-253; P02747 29-245); assay: ELISA, MAb coated on plate, human Clq in solution, detected with anti-human Clq peroxidase conjugate
T1 construct: also called Clq complement; C1q
Method: (§1) The Binding of Human Clq to MAbs was assessed by an ELISA binding assay. The 96-well plates (Nunc) were coated overnight at 4° C. with varying MAb concentrations. After washing, the plates were blocked with PBS-5% BSA for 1 h, and incubated for 1 h with 0.2 μg/ml of recombinant human Clq (Abd Serotec) or 2.5 μl of natural human complement (Sigma). Then, 100 μl of a 1/500 dilution of sheep anti-human Clq peroxidase-conjugated Ab (Abd Serotec) added and incubated for 1 h. The plates were developed with 100 μl per well of TMB substrate (Uptima Interchim). After H₂SO₄ addition, the OD was measured at 450 nm/630 nmusing a MRX II microplate reader.

[2] = molecular target: T1, human Clq; assay: ELISA, MAb coated on plate, human Clq in solution, detected with anti-human Clq peroxidase conjugate; chR007 Fc0 is the weaker reference
Method: as §1

T1 sequence (P02745 23-245 limits assumed, chain 1 of 3): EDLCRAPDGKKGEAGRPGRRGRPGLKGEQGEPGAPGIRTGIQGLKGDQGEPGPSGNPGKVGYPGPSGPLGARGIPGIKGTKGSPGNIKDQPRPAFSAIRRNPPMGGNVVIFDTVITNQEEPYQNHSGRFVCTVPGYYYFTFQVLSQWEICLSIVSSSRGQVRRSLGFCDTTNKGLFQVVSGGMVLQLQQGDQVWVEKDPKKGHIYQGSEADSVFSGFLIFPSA
T1 sequence (P02746 28-253 limits assumed, chain 2 of 3): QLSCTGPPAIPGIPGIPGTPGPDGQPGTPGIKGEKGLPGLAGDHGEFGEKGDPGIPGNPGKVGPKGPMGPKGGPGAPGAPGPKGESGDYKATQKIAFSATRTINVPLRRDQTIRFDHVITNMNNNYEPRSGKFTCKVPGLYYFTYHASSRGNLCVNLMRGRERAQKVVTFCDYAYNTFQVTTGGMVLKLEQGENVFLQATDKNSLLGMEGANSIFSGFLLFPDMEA
T1 sequence (P02747 29-245 limits assumed, chain 3 of 3): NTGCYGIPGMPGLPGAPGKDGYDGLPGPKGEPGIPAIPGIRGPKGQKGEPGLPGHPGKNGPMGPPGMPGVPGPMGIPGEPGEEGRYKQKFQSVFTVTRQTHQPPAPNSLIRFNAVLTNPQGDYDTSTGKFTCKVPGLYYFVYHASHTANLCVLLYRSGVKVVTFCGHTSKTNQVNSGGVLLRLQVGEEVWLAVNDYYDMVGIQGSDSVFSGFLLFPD

| binding result [1] | binding result [2] | Binder |
| --- | --- | --- |
| binds |  | humanized 7Hz116 Fc24 (antibody, human IgG1, kappa, V domains shown) VH: EVQLVESGGGLVQPGGSLKLSCAASGFTFSNYWMHWVRQASGKGLEWVAEIRSKANSYATAYAASVKGRFTISRDDSKNTAYLQMNSLKTEDTAVYYCTRDWEFAYWGQGTLVTVSS VL: DIVMTQSPDSLAVSLGERATINCKSSQSVDNYGSSSLAWYQQKPGQPPKLLIYRASNLDSGVPDRFSGSGSGTDFTLTISSVQAEDVAVYYCQQSNEDLPYTFGQGTKLEIKR |
| binds |  | chR007 Fc24 (antibody, human IgG1, kappa, also called chimeric chR007 Fc24) heavy: EVKLEESGGGLVQPGGSMKLSCVASGFTFSNYWMNWVRQSPEKGLEWVAEIRLKSNNYATHYAESVKGRFTISRDDSRSSVYLQMNNLRAEDTGIYYCTRDWEFAYWGQGTLVTVSSASTKGPSVFPLAPSSKSTSGGTAALGCLVKDYFPEPVTVSWNSGALTSGVHTFPAVLQSSGLYSLSSVVTVPSSSLGTQTYICNVNHKPSNTKVDKKVEPKSCDKTHTCPPCPAPELLGGPSVFLLPPKPKDTLMISRTPEVTCVVVDVSHEDPEVKFNWYVDGVEVHNAKTKPPEEQYNSTLRVVSLLTVLHQDWLNGKEYKCKVSNAALPAPIAKTISKAKGQPREPQVYTLPPSRDELTKNQVSLTCLVKGFYPSDIAVEWESNGQPENNYKTTPLVLDSDGSFFLYSKLTVDKSRWQQGNVFSCSVMHEALHNHYTQKSLSLSPGK light: DIVLTQSPASLAVSLGQRATISCRTSESVDNYGSSSMNWFQQKPGQPPKLLIYRASNLDSGIPARFSGSGSRSDFTLTINPVEADDVATYYCQQSNEDLPYTFGGGTKLEIKRTVAAPSVFIFPPSDEQLKSGTASVVCLLNNFYPREAKVQWKVDNALQSGNSQESVTEQDSKDSTYSLSSTLTLSKADYEKHKVYACEVTHQGLSSPVTKSFNRGEC |
|  | binds | chR007 Fc0 (antibody, human IgG1, kappa, Chimeric anti-CD5 IgG1 with native human IgG1 Fc; also called native chimeric MAb chR007 Fc0) heavy: not shown light: DIVLTQSPASLAVSLGQRATISCRTSESVDNYGSSSMNWFQQKPGQPPKLLIYRASNLDSGIPARFSGSGSRSDFTLTINPVEADDVATYYCQQSNEDLPYTFGGGTKLEIKRTVAAPSVFIFPPSDEQLKSGTASVVCLLNNFYPREAKVQWKVDNALQSGNSQESVTEQDSKDSTYSLSSTLTLSKADYEKHKVYACEVTHQGLSSPVTKSFNRGEC |
